Results from patent publication JP2007535905A.

Biological target: SM5−1抗原(BIAcore測定に用いた形は記載なし)
Assay: BIAcore (Pharmacia), kinetic analysis after Karlsson et al.

B1: 抗ヒトSM5−1ヒト化抗体(ReSM5−1) (antibody, V domains shown)
VH: QVQLVQSGGGVVQPGRSLRLSCKASGYTFTSYVMHWVRQAPGKGLEWIGYIVPYNDGTKYNEKFKGRFTISSDKSKSTAFLQMDSLRPEDTAVYYCARGSRYDWYLDYWGQGTPVTVSS
VL: NIMMTQSPSSLSASVGDRVTITCKSSQSVLYSSNQKNYLAWYQQTPGKAPKLLIYWASTRESGVPSRFSGSGSGTDYTFTISSLQPEDIATYYCHQYFSSYTFGQGTKLQITR
- Kd: 9.31 nM
